Experimental findings from US20240117334A1, “FACTOR B PROTEASES” (Vertex Pharmaceuticals Incorporated, priority 2021, published 2024) are described below.

To fix the notation:
B1: chymase C22S/P38Q/K40L/F41R/V138I/F173L/D175H/A190S/V213A/S218V/A226R (enzyme)
chain: IIGGTESKPHSRPYMAYLEIVTSNGQSLRCGGFLIRRNFVLTAAHCAGRSITVTLGAHNITEEEDTWQKLEVIKQFRHPKYNTSTLHHDIMLLKLKEKASLTLAVGTLPFPSQFNFVPPGRMCRIAGWGRTGVLKPGSDTLQEVKLRLMDPQACSHLRHFDHNLQLCVGNPRKTKSSFKGDSGGPLLCAGVAQGIASYGRVDAKPPRVFTRISHYRPWINQILQAN
B2: chymase C22S/P38Q/K40L/F41R/V138I/D175N/A190S/V213A/S218V/A226R (enzyme)
chain: IIGGTESKPHSRPYMAYLEIVTSNGQSLRCGGFLIRRNFVLTAAHCAGRSITVTLGAHNITEEEDTWQKLEVIKQFRHPKYNTSTLHHDIMLLKLKEKASLTLAVGTLPFPSQFNFVPPGRMCRIAGWGRTGVLKPGSDTLQEVKLRLMDPQACSHFRNFDHNLQLCVGNPRKTKSSFKGDSGGPLLCAGVAQGIASYGRVDAKPPRVFTRISHYRPWINQILQAN
B3: chymase C22S/P38Q/K40L/F41K/L99N/V138I/F173Y/D175S/A190S/V213A/S218I/A226R (enzyme)
chain: IIGGTESKPHSRPYMAYLEIVTSNGQSLKCGGFLIRRNFVLTAAHCAGRSITVTLGAHNITEEEDTWQKLEVIKQFRHPKYNTSTNHHDIMLLKLKEKASLTLAVGTLPFPSQFNFVPPGRMCRIAGWGRTGVLKPGSDTLQEVKLRLMDPQACSHYRSFDHNLQLCVGNPRKTKSSFKGDSGGPLLCAGVAQGIASYGRIDAKPPRVFTRISHYRPWINQILQAN
B4: chymase C22S/P38Q/K40M/F41R/L99Y/V138I/F173L/D175S/A190S/V213A/S218V/A226R (enzyme)
chain: IIGGTESKPHSRPYMAYLEIVTSNGQSMRCGGFLIRRNFVLTAAHCAGRSITVTLGAHNITEEEDTWQKLEVIKQFRHPKYNTSTYHHDIMLLKLKEKASLTLAVGTLPFPSQFNFVPPGRMCRIAGWGRTGVLKPGSDTLQEVKLRLMDPQACSHLRSFDHNLQLCVGNPRKTKSSFKGDSGGPLLCAGVAQGIASYGRVDAKPPRVFTRISHYRPWINQILQAN
B5: chymase C22S/P38Q/K40M/F41R/L99F/V138I/F173L/D175N/A190S/V213A/A226R (enzyme)
chain: IIGGTESKPHSRPYMAYLEIVTSNGQSMRCGGFLIRRNFVLTAAHCAGRSITVTLGAHNITEEEDTWQKLEVIKQFRHPKYNTSTFHHDIMLLKLKEKASLTLAVGTLPFPSQFNFVPPGRMCRIAGWGRTGVLKPGSDTLQEVKLRLMDPQACSHLRNFDHNLQLCVGNPRKTKSSFKGDSGGPLLCAGVAQGIASYGRSDAKPPRVFTRISHYRPWINQILQAN
B6: chymase C22S/P38Q/K40A/F41T/L99Y/V138I/F173S/D175H/A190S/V213A/S218I/A226R (enzyme)
chain: IIGGTESKPHSRPYMAYLEIVTSNGQSATCGGFLIRRNFVLTAAHCAGRSITVTLGAHNITEEEDTWQKLEVIKQFRHPKYNTSTYHHDIMLLKLKEKASLTLAVGTLPFPSQFNFVPPGRMCRIAGWGRTGVLKPGSDTLQEVKLRLMDPQACSHSRHFDHNLQLCVGNPRKTKSSFKGDSGGPLLCAGVAQGIASYGRIDAKPPRVFTRISHYRPWINQILQAN
B7: chymase C22S/P38Q/K40L/F41R/V138I/F173M/D175N/A190S/V213A/S218L/A226R (enzyme)
chain: IIGGTESKPHSRPYMAYLEIVTSNGQSLRCGGFLIRRNFVLTAAHCAGRSITVTLGAHNITEEEDTWQKLEVIKQFRHPKYNTSTLHHDIMLLKLKEKASLTLAVGTLPFPSQFNFVPPGRMCRIAGWGRTGVLKPGSDTLQEVKLRLMDPQACSHMRNFDHNLQLCVGNPRKTKSSFKGDSGGPLLCAGVAQGIASYGRLDAKPPRVFTRISHYRPWINQILQAN
B8: chymase C22S/P38Q/K40A/F41R/L99Y/V138I/F173L/D175R/A190S/V213A/S218L/A226R (enzyme)
chain: IIGGTESKPHSRPYMAYLEIVTSNGQSARCGGFLIRRNFVLTAAHCAGRSITVTLGAHNITEEEDTWQKLEVIKQFRHPKYNTSTYHHDIMLLKLKEKASLTLAVGTLPFPSQFNFVPPGRMCRIAGWGRTGVLKPGSDTLQEVKLRLMDPQACSHLRRFDHNLQLCVGNPRKTKSSFKGDSGGPLLCAGVAQGIASYGRLDAKPPRVFTRISHYRPWINQILQAN
B9: chymase C22S/P38Q/K40V/F41R/V138I/F173L/D175R/A190S/V213A/S218I/A226R (enzyme)
chain: IIGGTESKPHSRPYMAYLEIVTSNGQSVRCGGFLIRRNFVLTAAHCAGRSITVTLGAHNITEEEDTWQKLEVIKQFRHPKYNTSTLHHDIMLLKLKEKASLTLAVGTLPFPSQFNFVPPGRMCRIAGWGRTGVLKPGSDTLQEVKLRLMDPQACSHLRRFDHNLQLCVGNPRKTKSSFKGDSGGPLLCAGVAQGIASYGRIDAKPPRVFTRISHYRPWINQILQAN
B10: chymase C22S/P38Q/K40L/F41R/L99N/V138I/F173Y/D175T/A190S/V213A/S218V/A226R (enzyme)
chain: IIGGTESKPHSRPYMAYLEIVTSNGQSLRCGGFLIRRNFVLTAAHCAGRSITVTLGAHNITEEEDTWQKLEVIKQFRHPKYNTSTNHHDIMLLKLKEKASLTLAVGTLPFPSQFNFVPPGRMCRIAGWGRTGVLKPGSDTLQEVKLRLMDPQACSHYRTFDHNLQLCVGNPRKTKSSFKGDSGGPLLCAGVAQGIASYGRVDAKPPRVFTRISHYRPWINQILQAN
B11: chymase C22S/P38Q/K40M/F41R/V138I/F173L/D175N/A190S/V213A/S218L/A226R (enzyme)
chain: IIGGTESKPHSRPYMAYLEIVTSNGQSMRCGGFLIRRNFVLTAAHCAGRSITVTLGAHNITEEEDTWQKLEVIKQFRHPKYNTSTLHHDIMLLKLKEKASLTLAVGTLPFPSQFNFVPPGRMCRIAGWGRTGVLKPGSDTLQEVKLRLMDPQACSHLRNFDHNLQLCVGNPRKTKSSFKGDSGGPLLCAGVAQGIASYGRLDAKPPRVFTRISHYRPWINQILQAN
B12: chymase C22S/P38Q/K40L/F41R/L99Q/V138I/F173Y/D175N/A190S/V213A/S218V/A226R (enzyme)
chain: IIGGTESKPHSRPYMAYLEIVTSNGQSLRCGGFLIRRNFVLTAAHCAGRSITVTLGAHNITEEEDTWQKLEVIKQFRHPKYNTSTQHHDIMLLKLKEKASLTLAVGTLPFPSQFNFVPPGRMCRIAGWGRTGVLKPGSDTLQEVKLRLMDPQACSHYRNFDHNLQLCVGNPRKTKSSFKGDSGGPLLCAGVAQGIASYGRVDAKPPRVFTRISHYRPWINQILQAN
B13: chymase C22S/P38Q/K40M/F41R/L99Y/V138I/F173S/D175S/A190S/V213A/S218T/A226R (enzyme)
chain: IIGGTESKPHSRPYMAYLEIVTSNGQSMRCGGFLIRRNFVLTAAHCAGRSITVTLGAHNITEEEDTWQKLEVIKQFRHPKYNTSTYHHDIMLLKLKEKASLTLAVGTLPFPSQFNFVPPGRMCRIAGWGRTGVLKPGSDTLQEVKLRLMDPQACSHSRSFDHNLQLCVGNPRKTKSSFKGDSGGPLLCAGVAQGIASYGRTDAKPPRVFTRISHYRPWINQILQAN
B14: chymase C22S/P38Q/K40M/F41R/V138I/F173L/D175K/A190S/V213A/S218V/A226R (enzyme)
chain: IIGGTESKPHSRPYMAYLEIVTSNGQSMRCGGFLIRRNFVLTAAHCAGRSITVTLGAHNITEEEDTWQKLEVIKQFRHPKYNTSTLHHDIMLLKLKEKASLTLAVGTLPFPSQFNFVPPGRMCRIAGWGRTGVLKPGSDTLQEVKLRLMDPQACSHLRKFDHNLQLCVGNPRKTKSSFKGDSGGPLLCAGVAQGIASYGRVDAKPPRVFTRISHYRPWINQILQAN
B15: chymase C22S/P38Q/K40A/F41R/L99H/V138I/D175R/A190S/V213A/S218L/A226R (enzyme)
chain: IIGGTESKPHSRPYMAYLEIVTSNGQSARCGGFLIRRNFVLTAAHCAGRSITVTLGAHNITEEEDTWQKLEVIKQFRHPKYNTSTHHHDIMLLKLKEKASLTLAVGTLPFPSQFNFVPPGRMCRIAGWGRTGVLKPGSDTLQEVKLRLMDPQACSHFRRFDHNLQLCVGNPRKTKSSFKGDSGGPLLCAGVAQGIASYGRLDAKPPRVFTRISHYRPWINQILQAN
B16: chymase C22S/P38Q/K40M/F41H/V138I/F173Y/D175R/A190S/V213A/S218V/A226R (enzyme)
chain: IIGGTESKPHSRPYMAYLEIVTSNGQSMHCGGFLIRRNFVLTAAHCAGRSITVTLGAHNITEEEDTWQKLEVIKQFRHPKYNTSTLHHDIMLLKLKEKASLTLAVGTLPFPSQFNFVPPGRMCRIAGWGRTGVLKPGSDTLQEVKLRLMDPQACSHYRRFDHNLQLCVGNPRKTKSSFKGDSGGPLLCAGVAQGIASYGRVDAKPPRVFTRISHYRPWINQILQAN
B17: chymase C22S/P38Q/K40M/F41R/L99N/V138I/D175N/A190S/V213A/S218T/A226R (enzyme)
chain: IIGGTESKPHSRPYMAYLEIVTSNGQSMRCGGFLIRRNFVLTAAHCAGRSITVTLGAHNITEEEDTWQKLEVIKQFRHPKYNTSTNHHDIMLLKLKEKASLTLAVGTLPFPSQFNFVPPGRMCRIAGWGRTGVLKPGSDTLQEVKLRLMDPQACSHFRNFDHNLQLCVGNPRKTKSSFKGDSGGPLLCAGVAQGIASYGRTDAKPPRVFTRISHYRPWINQILQAN
B18: chymase C22S/P38Q/K40M/F41R/L99Y/V138I/F173Y/D175S/A190S/V213A/S218V/A226R (enzyme)
chain: IIGGTESKPHSRPYMAYLEIVTSNGQSMRCGGFLIRRNFVLTAAHCAGRSITVTLGAHNITEEEDTWQKLEVIKQFRHPKYNTSTYHHDIMLLKLKEKASLTLAVGTLPFPSQFNFVPPGRMCRIAGWGRTGVLKPGSDTLQEVKLRLMDPQACSHYRSFDHNLQLCVGNPRKTKSSFKGDSGGPLLCAGVAQGIASYGRVDAKPPRVFTRISHYRPWINQILQAN
B19: chymase C22S/P38Q/K40M/F41T/V138I/D175R/A190S/V213A/S218I/A226R (enzyme)
chain: IIGGTESKPHSRPYMAYLEIVTSNGQSMTCGGFLIRRNFVLTAAHCAGRSITVTLGAHNITEEEDTWQKLEVIKQFRHPKYNTSTLHHDIMLLKLKEKASLTLAVGTLPFPSQFNFVPPGRMCRIAGWGRTGVLKPGSDTLQEVKLRLMDPQACSHFRRFDHNLQLCVGNPRKTKSSFKGDSGGPLLCAGVAQGIASYGRIDAKPPRVFTRISHYRPWINQILQAN
B20: chymase C22S/P38Q/K40M/F41R/L99Q/V138I/F173Y/D175A/A190S/V213A/S218T/A226R (enzyme)
chain: IIGGTESKPHSRPYMAYLEIVTSNGQSMRCGGFLIRRNFVLTAAHCAGRSITVTLGAHNITEEEDTWQKLEVIKQFRHPKYNTSTQHHDIMLLKLKEKASLTLAVGTLPFPSQFNFVPPGRMCRIAGWGRTGVLKPGSDTLQEVKLRLMDPQACSHYRAFDHNLQLCVGNPRKTKSSFKGDSGGPLLCAGVAQGIASYGRTDAKPPRVFTRISHYRPWINQILQAN
B21: chymase C22S/P38Q/K40M/F41R/L99Q/V138I/F173Y/D175N/A190S/V213A/S218V/A226R (enzyme)
chain: IIGGTESKPHSRPYMAYLEIVTSNGQSMRCGGFLIRRNFVLTAAHCAGRSITVTLGAHNITEEEDTWQKLEVIKQFRHPKYNTSTQHHDIMLLKLKEKASLTLAVGTLPFPSQFNFVPPGRMCRIAGWGRTGVLKPGSDTLQEVKLRLMDPQACSHYRNFDHNLQLCVGNPRKTKSSFKGDSGGPLLCAGVAQGIASYGRVDAKPPRVFTRISHYRPWINQILQAN

This experiment deals with Human Factor B (human) (UniProt P00751). Nature of the experiment: cell-based or functional assay.
Human Factor B (human), sequence (P00751 26-764 limits assumed): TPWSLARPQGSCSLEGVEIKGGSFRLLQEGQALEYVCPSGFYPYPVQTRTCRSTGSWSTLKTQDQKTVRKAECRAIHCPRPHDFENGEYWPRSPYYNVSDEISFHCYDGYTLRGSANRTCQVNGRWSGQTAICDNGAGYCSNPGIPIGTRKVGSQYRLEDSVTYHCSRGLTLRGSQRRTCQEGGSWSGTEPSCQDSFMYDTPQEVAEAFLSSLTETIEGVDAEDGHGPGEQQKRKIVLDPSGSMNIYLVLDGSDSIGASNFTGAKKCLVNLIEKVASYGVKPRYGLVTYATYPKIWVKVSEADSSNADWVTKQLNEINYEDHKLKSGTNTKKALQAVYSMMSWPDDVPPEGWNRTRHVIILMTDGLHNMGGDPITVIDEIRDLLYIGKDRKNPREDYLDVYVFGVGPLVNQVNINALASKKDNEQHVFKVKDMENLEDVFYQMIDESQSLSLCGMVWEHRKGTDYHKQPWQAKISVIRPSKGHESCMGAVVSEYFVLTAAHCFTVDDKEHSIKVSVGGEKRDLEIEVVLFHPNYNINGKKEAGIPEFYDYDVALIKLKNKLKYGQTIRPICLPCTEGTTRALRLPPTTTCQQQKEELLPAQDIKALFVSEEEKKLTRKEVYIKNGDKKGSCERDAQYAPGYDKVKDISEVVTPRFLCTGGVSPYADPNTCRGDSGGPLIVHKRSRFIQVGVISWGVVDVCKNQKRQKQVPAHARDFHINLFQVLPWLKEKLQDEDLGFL
B1 registered a fB Cleavage EC50 of 314 nM.
Then B2, with 114 nM; and B3, with 144 nM.
In the case of B4, the fB Cleavage EC50 is 814 nM.
B5: the fB Cleavage EC50 is 870 nM.
For the molecule B6, the fB Cleavage EC50 came out at 3130 nM.
For B7 the value was 456 nM.
B8 yielded a fB Cleavage EC50 of 511 nM.
Then B9, with 169 nM; and B10, with 57.6 nM; and B11, with 482 nM.
B12 registered a fB Cleavage EC50 of 102 nM.
B13: the fB Cleavage EC50 worked out at 10600 nM.
Then B14, with 350 nM; and B15, with 191 nM.
Consider B16, for which the fB Cleavage EC50 was 47.6 nM.
The molecule B17 displayed a fB Cleavage EC50 of 449 nM.
Then B18, with 103 nM; and B19, with 218 nM; and B20, with 724 nM.
Take B21: the fB Cleavage EC50 amounted to 157 nM.
